This is an account of results in patent US20090011979A1 (published 2009).

The Kd is the equilibrium constant for the complex coming apart. Higher therefore signals a looser complex.

One assay deals with T1, mouse IL-18 (mouse, UniProt P70380 36-192).
T1 chain: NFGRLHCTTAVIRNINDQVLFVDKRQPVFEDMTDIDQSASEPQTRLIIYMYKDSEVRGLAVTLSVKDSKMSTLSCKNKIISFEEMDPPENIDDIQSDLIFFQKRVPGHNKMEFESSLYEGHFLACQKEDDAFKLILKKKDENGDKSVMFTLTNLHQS
As to the kind of experiment: SPR. On the technique in general: Surface plasmon resonance follows binding to a sensor surface in real time, without labels.

The next assay concerns the target human IL-18 (human, UniProt Q14116 37-193). Briefly: SPR.

Sequence of human IL-18 (Q14116 37-193): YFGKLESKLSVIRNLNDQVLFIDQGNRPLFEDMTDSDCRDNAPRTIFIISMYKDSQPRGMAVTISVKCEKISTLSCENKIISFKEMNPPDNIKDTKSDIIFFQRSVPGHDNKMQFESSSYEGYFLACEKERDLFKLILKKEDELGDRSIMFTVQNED

B1: untagged YCI (YMTV IL-18 bp, YMTV Cytokine Inhibitor, without tag) (other)
chain: EKECDKHRSVNIQVPMKETSEVLLRCTGSSYFKHFSYVYWLVGESETVDQLQQNSGYGETSHPSKPHECGNLPSADLVLTNMTEKMRDTKLTCVLMDPDGHIDESLVLREVWDCFNKT
B1: the Kd with mouse IL-18 was 7.6 nM; with human IL-18, 8.13 nM.
